Results reported in patent US20200048358A1 (ALLIGATOR BIOSCIENCE, published 2020).

T1: chimeric OX40 construct 1547: Human OX40 with mouse domain 2B, module 3 and domain 4A (aa 83-141) (human; mouse, UniProt P47741 79-139)
T1 construct: domain: 2B, module 3 and domain 4A; On 293-F cells; limits derived as for 1544
T1 sequence: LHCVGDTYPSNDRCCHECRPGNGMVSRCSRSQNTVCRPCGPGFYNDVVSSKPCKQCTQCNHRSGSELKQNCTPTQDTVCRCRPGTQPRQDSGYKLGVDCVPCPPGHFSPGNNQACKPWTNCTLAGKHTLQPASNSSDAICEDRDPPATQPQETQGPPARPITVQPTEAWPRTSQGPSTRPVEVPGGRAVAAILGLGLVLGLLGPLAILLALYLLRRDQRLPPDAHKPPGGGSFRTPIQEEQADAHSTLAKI

T2: chimeric OX40 construct 1548: Human OX40 with mouse module 3 and domains 4A and 4B (aa 108-167) (human; mouse, UniProt P47741 104-165)
T2 construct: domain: module 3 and domains 4A and 4B; On 293-F cells; limits derived as for 1544
T2 sequence: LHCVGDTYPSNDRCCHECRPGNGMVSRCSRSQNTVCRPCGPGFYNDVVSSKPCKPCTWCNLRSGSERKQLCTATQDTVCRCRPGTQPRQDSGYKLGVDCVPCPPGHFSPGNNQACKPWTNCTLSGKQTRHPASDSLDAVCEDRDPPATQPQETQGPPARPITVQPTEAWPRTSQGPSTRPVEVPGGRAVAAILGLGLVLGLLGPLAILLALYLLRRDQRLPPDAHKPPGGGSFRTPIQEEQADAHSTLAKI

T3: chimeric OX40 construct 1545: Human OX40 with mouse domains 1B, 2A and 2B (aa 43-107) (human; mouse, UniProt P47741 39-103)
T3 construct: domain: 1B, 2A and 2B; On 293-F cells; limits derived as for 1544
T3 sequence: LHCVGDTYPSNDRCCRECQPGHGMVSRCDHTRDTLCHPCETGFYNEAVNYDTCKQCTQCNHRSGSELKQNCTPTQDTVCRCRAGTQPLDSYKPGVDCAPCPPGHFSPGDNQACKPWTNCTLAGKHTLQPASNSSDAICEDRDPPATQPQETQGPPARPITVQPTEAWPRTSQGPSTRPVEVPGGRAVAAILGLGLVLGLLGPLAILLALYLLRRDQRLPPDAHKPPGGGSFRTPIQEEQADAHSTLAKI

T4: chimeric OX40 construct 1546: Human OX40 with mouse domains 2A, 2B and module 3 (aa 66-126) (human; mouse, UniProt P47741 62-124)
T4 construct: domain: 2A, 2B and module 3; On 293-F cells; limits derived as for 1544
T4 sequence: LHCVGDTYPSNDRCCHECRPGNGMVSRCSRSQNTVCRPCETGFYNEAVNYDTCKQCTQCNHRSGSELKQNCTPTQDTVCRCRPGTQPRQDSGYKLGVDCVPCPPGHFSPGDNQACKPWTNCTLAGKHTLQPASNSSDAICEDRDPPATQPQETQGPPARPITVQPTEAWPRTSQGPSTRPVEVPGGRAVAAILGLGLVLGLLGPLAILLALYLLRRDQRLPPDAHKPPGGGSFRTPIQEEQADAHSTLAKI

T5: construct 84: Construct containing the full length OX40 sequence (human, UniProt P43489 29-277)
T5 construct: On transiently transfected FreeStyle 293-F cells; also called human OX40 (full length, on 293-F cells)
T5 sequence: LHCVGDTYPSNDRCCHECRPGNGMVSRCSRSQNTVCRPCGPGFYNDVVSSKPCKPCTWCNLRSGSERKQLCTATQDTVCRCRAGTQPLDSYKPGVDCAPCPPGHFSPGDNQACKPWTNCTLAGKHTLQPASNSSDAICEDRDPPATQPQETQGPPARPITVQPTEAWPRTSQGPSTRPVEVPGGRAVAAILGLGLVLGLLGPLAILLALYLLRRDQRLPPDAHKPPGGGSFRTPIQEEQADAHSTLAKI


Legend:
[1] = target: T1, chimeric OX40 construct 1547: Human …; experiment: flow cytometry, transfected 293-F cells
Experimental: (§1) The mouse/human chimeras were transiently transfected into FreeStyle 293-F cells (Invitrogen), incubated 48 hours in FreeStyle 293 expression medium (Invitrogen) 37 C, 8% CO₂, 135 rpm. The transfected cells were incubated with human OX40 antibodies, human OX40L (hOX40L, RnD Systems), mouse OX40L (mOX40L, RnD Systems) and controls for 30 min 4° C. and then detected with a-huIgG-PE (Jackson lmmunoresearch) 30 min 4° C. Cells were analyzed with FACS Verse (BD Biosciences). Binding to the different chimeric constructs were calculated as relative (mean fluorescence intensity) MFI compared to the binding of the isotype control.

[2] = target: T2, chimeric OX40 construct 1548: Human …; experiment: flow cytometry, transfected 293-F cells
Experimental: as §1

[3] = target: T3, chimeric OX40 construct 1545: Human …; experiment: flow cytometry, transfected 293-F cells
Experimental: as §1

[4] = target: T4, chimeric OX40 construct 1546: Human …; experiment: flow cytometry, transfected 293-F cells
Experimental: as §1

[5] = target: T5, construct 84: Construct containing the …; experiment: flow cytometry, transfected 293-F cells
Experimental: as §1

[6] = target: T6, CTLA4-Fc (Fitzgerald, #30R-CD152) (human, UniProt P16410 38-152, biotinylated where used as soluble reagent in the inhibition ELISAs); experiment: binding ELISA; ratio [EC50 for CD28-Fc]/[EC50 for CTLA4-Fc]
T6 construct: Bought reagent; also called human CTLA-4 (Fitzgerald); biotinylated-CTLA4
Experimental: 96-well flat bottom high binding plates (Greiner, #655074) were coated with either CTLA4-Fc (Fitzgerald, #30R-CD152) or CD28-Fc (R&D systems, 342-CD) by incubating overnight at 4° C. […] The plates were washed again and sample or controls (serially diluted 1/5 from 200-0.001 μg/ml) were added to the wells. The samples were incubated for 1 h at room temperature and then washed. Detection antibody, goat-anti-human IgG Fcγ-HRP (Jackson, #109-035-098) was added and the plates were subsequently developed using SuperSignal Pico Chemiluminescent substrate (Thermo Scientific, #37069) and detected with an Envision reader (Perkin Elmer). EC50 values were calculated for both CTLA4 and CD28. The binding ratio (EC50 binding ratio=[EC50 for CD28]÷[EC50 for CTLA-4]) was calculated for each polypeptide and is shown in Table 1.1.

[7] = target: T6, CTLA4-Fc (Fitzgerald, #30R-CD152); experiment: SPR (Biacore); ratio [Kd for CD28]/[Kd for CTLA-4]
Experimental: Either CTLA4-Fc (Fitzgerald, #30R-CD152) or CD28-Fc (R&D Systems, 342-CD) was immobilized to the Biacore™ sensor chip, CM5, using conventional amine coupling. […] The association was followed for 3 minutes and the dissociation for 10 minutes. Regeneration was performed twice using 5 mM NaOH for 30 seconds. The kinetic parameters and the affinity constants were calculated using BIAevaluation 4.1 software (Table 1.3).

T6 sequence (P16410 38-152 limits assumed): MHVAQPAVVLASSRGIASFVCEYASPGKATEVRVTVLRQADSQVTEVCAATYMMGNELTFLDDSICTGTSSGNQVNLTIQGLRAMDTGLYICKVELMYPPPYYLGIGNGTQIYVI

Binder	relative MFI compared to isotype control [2]	EC50 binding ratio [6]	Kd binding ratio [7]	also measured
anti-OX40 antibody 1164/1135 (antibody, V domains shown, Tested as IgG) VH: EVQLLESGGGLVQPGGSLRLSCAASGFTFYGSSMYWVRQAPGKGLEWVSGIYSSGGYTSYADSVKGRFTISRDNSKNTLYLQMNSLRAEDTAVYYCARGVPHGYFDYWGQGTLVTVSS VL: not shown	1			relative MFI compared to isotype control [1]: 1; relative MFI compared to isotype control [3]: 37.3; relative MFI compared to isotype control [4]: 0.9; relative MFI compared to isotype control [5]: 27.5
anti-OX40 antibody 1490/1135 (antibody, V domains shown, Tested as IgG) VH: EVQLLESGGGLVQPGGSLRLSCAASGFTFSSYAMSWVRQAPGKGLEWVSGISYYGGYTYYADSVKGRFTISRDNSKNTLYLQMNSLRAEDTAVYYCARYYPHHYIDYWGQGTLVTVSS VL: not shown	1.1			
anti-OX40 antibody 1514/1515 (antibody, V domains shown, Tested as IgG) VH: EVQLLESGGGLVQPGGSLRLSCAASGFTFGYYYMSWVRQAPGKGLEWVSGISSYGSYTYYADSVKGRFTISRDNSKNTLYLQMNSLRAEDTAVYYCARSGYSNWANSFDYWGQGTLVTVSS VL: DIQMTQSPSSLSASVGDRVTITCRASQSISSYLNWYQQKPGKAPKLLIYAASSLQSGVPSRFSGSGSGTDFTLTISSLQPEDFATYYCQQGDYTLFTFGQGTKLEIK	17.2			
human wild-type CD86 (monomeric soluble extracellular domain), sample 'Wild type' (ligand, also called wild type protein) APLKIQAYFNETADLPCQFANSQNQSLSELVVFWQDQENLVLNEVYLGKEKFDSVHSKYMGRTSFDSDSWTLRLHNLQIKDKGLYQCIIHHKKPTGMIRIHQMNSELSVLA		3.4	1.6	
CD86 mutant 910 (ligand, Variant of the soluble extracellular domain of human CD86) LKIQAYFNETADLPCQFANSQNQSLSELVVFWQDQENLVLNEVYLGKEKFDSVDSKYMGRTSFDSDSWTLRLHNLQIKDKGIYQCIIHHKKPTGMVKIHEMNSELSVLA		7.7	5.1	
CD86 mutant 908 (ligand, Variant of the soluble extracellular domain of human CD86) LKIQAYFNETADLPCQFANSQNQSLSELVVFWQDQENLVLNEVYLGKEKFDSVHSKYMGRTSFDSDSWTLRLHNLQIKDKGIYQCIIHHKKPTGMVKIHEMNSELSVLA		6.2	4.7	
CD86 mutant 938 (ligand, Variant of the soluble extracellular domain of human CD86) LKIQAYFNETADLPCQFANSQNQSLSELVVFWQDQENLILNEVYLGKEKFDSVHSKYMGRTSFDSDSWTLRLHNLQIKDKGIYQCIIHHKKPTGMVKIHQMNSELSVLA		2	5.5	
CD86 mutant 906 (ligand, Variant of the soluble extracellular domain of human CD86) LKIQAYINETADLPCQFANSQNLSLSELVVFWQDQENLVLNEVYLGKERFDSVDSKYMGRTSFDSDSWTLRLHNLQIKDKGFYQCIIHHKKPTGLVKIHEMNSELSVLA		16.2	0.8	
CD86 mutant 900 (ligand, Variant of the soluble extracellular domain of human CD86) LKIQAYFNETADLPCQFANSQNQSLSELVVFWQDQENLVLNEVYLGKEKFDSVDSKYMGRTSFDSDSWTLRLHNLQIKDKGIYQCVIHHKKPSGLVKIHEMNSELSVLA		3.5		
CD86 mutant 907 (ligand, Variant of the soluble extracellular domain of human CD86) LKIQAYFNETADLPCQFANSQNQSLSELVVFWQDQENLVLNEVYLGKEKFDSVHSKYMGRTSFDSDSWTLRLHNLQIKDKGLYQCIIHHKKPTGMIKIHEMNSELSVLA		30.5	5.6	
CD86 mutant 904 (ligand, Variant of the soluble extracellular domain of human CD86) LKIQAYFNETADLPCQFANSQNQSLSELIVFWQDQENLVLNEVYLGKERFDAVDSKYMGRTSFDSDSWTLRLHNLQIKDKGIYQCIIHHKKPSGMVKIHQMDSELSVLA		12.2	6.8	
CD86 mutant 901 (ligand, Variant of the soluble extracellular domain of human CD86) LKIQAYFNETADLPCQFANSQNLTLSELVVFWQDQENLVLNEVYLGKEKFDSVHSKYMGRTSFDSDSWTLRLHNLQIKDKGIYQCVIHHKKPTGMIKIHEMNSELSVLT		17.2	2.7	
CD86 mutant 915 (ligand, Variant of the soluble extracellular domain of human CD86) LKIQAYFNETADLPCQFANSQNQSLSELVVFWQDQENLILNEVYLGKEKFDSVDSKYMGRTSFDSDSWTLRLHNLQIKDKGFYQCIIHHKKPSGLIKIHQMDSELSVLA		9.9	1.9	
anti-OX40 antibody 1166/1167 (antibody, V domains shown, also called monospecific OX40 antibody) VH: EVQLLESGGGLVQPGGSLRLSCAASGFTFGGYYMSWVRQAPGKGLEWVSAISGSGGSTYYADSVKGRFTISRDNSKNTLYLQMNSLRAEDTAVYYCARYDYASMDYWGQGTLVTVSS VL: DIQMTQSPSSLSASVGDRVTITCRASQSISSYLNWYQQKPGKAPKLLIYAASSLQSGVPSRFSGSGSGTDFTLTISSLQPEDFATYYCQQYYWYGLSTFGQGTKLEIK	15.8			
anti-OX40 antibody 1170/1171 (antibody, V domains shown, Tested as IgG) VH: EVQLLESGGGLVQPGGSLRLSCAASGFTFGGYYMSWVRQAPGKGLEWVSYIPGSGGSTYYADSVKGRFTISRDNSKNTLYLQMNSLRAEDTAVYYCARYDYYWMDYWGQGTLVTVSS VL: DIQMTQSPSSLSASVGDRVTITCRASQSISSYLNWYQQKPGKAPKLLIYAASSLQSGVPSRFSGSGSGTDFTLTISSLQPEDFATYYCQQGHGSYPHTFGQGTKLEIK	20.3			
